Earlier results as cited in article PMC11273449.

Legend:
[1] = biological target: Spike S1 subunit, BA.1 (SARS-CoV-2 BA.1 (Omicron)) (UniProt P0DTC2); assay: cited; conditions: 5' hexynyl
[2] = tested on: Influenza A virion (Influenza A/PR/8/34); assay: cited; conditions: 5' hexynyl

Row | Sequence | Kd [1] [nM] | Kd [2] [nM]
1 | TTTTTACGCCAAGGTGTCACTCCGTAGGGTTTGGCTCCGGGCCTGGCGTCGGTCGCGAAGCATCTCCTTGGCGT [Aptamer 4 (particle)] | 5 | 
2 | TTTTTGGCAGGAAGACAAACAGCCAGCGTGACAGCGACGCGTAGGGACCGGCATCCGCGGGTGGTCTGTGGTGCTGT [Influenza A aptamer (particle)] |  | 55
